One molecule from PMC4057782, “tRNA synthetase counteracts c-Myc to develop functional vasculature” (eLife, 2014) can be followed below.

The target of this test is T1, GST-SerRS fusion protein (full-length human SerRS) (human, UniProt P49591 1-514).
T1 construct: also called GST-tagged SerRS
The experiment in a line: pull-down; GST or GST-SerRS fusion proteins (full-length or domain fragments) incubated with recombinant His-tagged SIRT2 for two hours and pulled down on Glutathione-Sepharose 4B; 20 mM HEPES pH 7.9, 150 mM NaCl, 0.5 mM EDTA, 10% glycerol, 0.1% Triton X-100, 1 mM DTT; SIRT2 detected with anti-His6. Conditions: both partners purified.

T1 sequence (P49591 whole entry, the tested form may be a part): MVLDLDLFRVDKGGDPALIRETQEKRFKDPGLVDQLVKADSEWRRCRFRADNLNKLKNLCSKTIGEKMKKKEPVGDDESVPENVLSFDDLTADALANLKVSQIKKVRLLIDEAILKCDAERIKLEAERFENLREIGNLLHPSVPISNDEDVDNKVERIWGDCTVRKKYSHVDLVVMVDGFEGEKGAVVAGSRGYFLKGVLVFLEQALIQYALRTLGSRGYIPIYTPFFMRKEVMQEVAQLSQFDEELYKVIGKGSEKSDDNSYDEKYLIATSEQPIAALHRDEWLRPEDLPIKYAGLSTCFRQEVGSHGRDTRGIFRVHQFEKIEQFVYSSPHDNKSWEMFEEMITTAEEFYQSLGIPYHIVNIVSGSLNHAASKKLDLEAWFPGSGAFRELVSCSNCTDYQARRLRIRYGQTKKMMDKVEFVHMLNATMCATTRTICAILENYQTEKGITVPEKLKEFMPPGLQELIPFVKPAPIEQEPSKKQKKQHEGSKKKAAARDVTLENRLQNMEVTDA

B1: purified His-tagged human SIRT2 (enzyme, UniProt Q8IXJ6 1-389, looked up)
chain: MAEPDPSHPLETQAGKVQEAQDSDSDSEGGAAGGEADMDFLRNLFSQTLSLGSQKERLLDELTLEGVARYMQSERCRRVICLVGAGISTSAGIPDFRSPSTGLYDNLEKYHLPYPEAIFEISYFKKHPEPFFALAKELYPGQFKPTICHYFMRLLKDKGLLLRCYTQNIDTLERIAGLEQEDLVEAHGTFYTSHCVSASCRHEYPLSWMKEKIFSEVTPKCEDCQSLVKPDIVFFGESLPARFFSCMQSDFLKVDLLLVMGTSLQVQPFASLISKAPLSTPRLLINKEKAGQSDPFLGMIMGLGGGMDFDSKKAYRDVAWLGECDQGCLALAELLGWKKELEDLVRREHASIDAQSGAGVPNPSTSASPKKSPPPAKDEARTTEREKPQ
notes: The SIRT2 of the deacetylase assay is called only 'recombinant human SIRT2'; it may have come from the CycLex kit; also called recombinant SIRT2; His-tagged SIRT2; not shown: His tag, C-terminal, kept
In the case of B1, the binding result is given as “binds”.
